Drawing on patent US20090196872A1 (KIRIN BEER, published 2009), this text covers Kd for four molecules.

In general, Kd refers to a measure of binding affinity in units of concentration.

First the molecules themselves.
B1: human anti-M2 monoclonal antibody L66 (antibody, V domains shown)
VH: EVQLVESGGGVVRPGGSLRLSCAASGFTFDDYGMSWVRQAPGKGLEWVSGINWNGGSTGYADSVKGRFTISRDNAKNSLYLQMNSLRAEDTALYYCARDRVTMVRGVIMDYYGMDVWGQGTTVTVSS
VL: QTVVTQEPSLTVSPRGTVTLTCSSSTGAVTSGYYPGWFQLKPGQAPMSLIYSARKKHSWTPARFSGSLLGGKAALTLSGVQPEDEAEYYCLLYYGGAYVFGTGTKVTVLG
B2: human anti-M2 monoclonal antibody no. Z3G1 (recombinant IgG1 type Z3, CHO; ATCC PTA-5967) (antibody, V domains shown)
VH: QVQLVQSGAEVKKPGASVKVSCKASGYTFTSYGISWVRQAPGQGLEWMGWISAYNGNTNYAQKLQGRVTMTTDTSTSTAYMELRSLRSDDTAVYYCARAAAGGYFQHWGQGTLVTVSS
VL: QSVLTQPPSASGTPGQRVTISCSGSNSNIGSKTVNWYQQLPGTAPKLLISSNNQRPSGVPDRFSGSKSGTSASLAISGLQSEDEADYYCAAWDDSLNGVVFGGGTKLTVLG
B3: human anti-M2 monoclonal antibody N547 (antibody, V domains shown)
VH: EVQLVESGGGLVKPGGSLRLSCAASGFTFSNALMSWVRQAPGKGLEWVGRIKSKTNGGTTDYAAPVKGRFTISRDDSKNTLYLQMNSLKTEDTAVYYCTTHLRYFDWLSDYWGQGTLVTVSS
VL: QSVLTQPPSMSAAPGQKVTISCSGSSSNIGNNYISWYQQLPGTAPKVLIYDNNKRPSGIPDRFSGSKSGTSATLGITGLQTGDEADYYCGSWDSSLSAGVFGTGTKVTVLG
B4: human anti-M2 monoclonal antibody C40G1 (antibody, V domains shown)
VH: QLQLQESGPGLVKPSETLSLTCTVSGGSISSSFYYCGWIRQPPGKGLEWIGSIYYRGSTYYNPSLKSRVTISVDTSKNQFSLKLSSVTAADTAVYYCARRVTMVRGVKGDYFDYWGQGTLVTVSS
VL: DIQMTQSPSSLSASVGDRVTITCRASQGISSWLAWYQQKPEKVPKSLIYAASSLQSGVPSRFSGSGSGTDFTLTISSLQPEDFATYYCQQYNYYPLTFGGGTKVEIKR

The target in this assay is T1, M2 protein expressed on A/PR/8/34 infected MDCK cells (influenza A virus A/PR/8/34, UniProt P06821 1-97).
T1 construct: whole, on cells
T1 sequence (P06821 whole entry): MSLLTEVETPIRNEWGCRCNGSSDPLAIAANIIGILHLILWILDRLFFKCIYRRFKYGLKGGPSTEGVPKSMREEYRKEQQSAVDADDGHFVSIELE
Briefly: cell-based ELISA, half-saturating antibody concentration.
B1 gave a Kd of 0.563 nM.

Regarding B2, the Kd was 0.497 nM.

Turning to B3, the dissociation constant (Kd) came out at 1.05 nM.

On to B4, for which binding was characterised by a dissociation constant (Kd) of 0.519 nM.
